The values that follow come from patent US20250092148A1 (Kyowa Kirin, published 2025).

Numbering of substitutions follows the chain as printed.

One test deals with T1, human CD131 G198A (human, UniProt P32927 17-897).
T1 construct: whole, on cells
T1 sequence (looked up): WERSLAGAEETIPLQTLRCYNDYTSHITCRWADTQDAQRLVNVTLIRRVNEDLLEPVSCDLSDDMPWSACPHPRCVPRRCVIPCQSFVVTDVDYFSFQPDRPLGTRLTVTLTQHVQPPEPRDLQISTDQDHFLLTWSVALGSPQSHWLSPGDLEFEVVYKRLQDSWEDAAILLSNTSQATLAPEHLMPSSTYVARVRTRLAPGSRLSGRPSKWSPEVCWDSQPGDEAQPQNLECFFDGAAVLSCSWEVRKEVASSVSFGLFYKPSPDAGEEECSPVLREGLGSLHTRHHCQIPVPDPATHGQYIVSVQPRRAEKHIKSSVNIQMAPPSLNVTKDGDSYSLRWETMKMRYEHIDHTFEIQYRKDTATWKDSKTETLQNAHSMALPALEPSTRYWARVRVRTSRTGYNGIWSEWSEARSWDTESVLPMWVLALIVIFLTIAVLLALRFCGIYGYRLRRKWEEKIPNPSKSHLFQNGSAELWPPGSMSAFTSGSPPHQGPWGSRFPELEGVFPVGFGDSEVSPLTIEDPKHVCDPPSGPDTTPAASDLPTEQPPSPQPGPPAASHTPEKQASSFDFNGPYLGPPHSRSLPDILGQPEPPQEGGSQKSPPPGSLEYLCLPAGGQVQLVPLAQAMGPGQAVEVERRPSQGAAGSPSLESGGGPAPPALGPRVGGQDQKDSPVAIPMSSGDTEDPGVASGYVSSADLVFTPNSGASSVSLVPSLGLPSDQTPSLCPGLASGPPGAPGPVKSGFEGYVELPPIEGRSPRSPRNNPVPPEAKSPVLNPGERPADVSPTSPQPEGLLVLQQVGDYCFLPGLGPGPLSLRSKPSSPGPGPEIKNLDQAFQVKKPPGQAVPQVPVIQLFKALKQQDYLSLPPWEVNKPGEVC
Put plainly: flow cytometry, Fab on HEK-293T cells expressing the mutant; labels of this column stand one row too low, mutant assigned after shifting them up.

The target in a further test is T2, human CD131 D144A (human, UniProt P32927 17-897).
T2 construct: whole, on cells
T2 sequence (looked up): T1 sequence (looked up) with D128A, A182G
Described as above.

For the next test, the target named is T3, human CD131 W163A (human, UniProt P32927 17-897).
T3 construct: whole, on cells
T3 sequence (looked up): T1 sequence (looked up) with W147A, A182G
The test can be described thus: flow cytometry, Fab on HEK-293T cells expressing the mutant; labels of this column stand one row too low, mutant assigned after shifting them up (text: W163 is an epitope residue).

B1: anti-CD131 antibody 131-B2, Fab (Fab, V domains shown)
VH: QVQLVQSGAEVKEPGASVKISCKASGYTFTNDYMHWVRQAPGQGLEWMGIINPTGGGTSYAQKFRGRVTMTRDTSTSTVYMELSSLRSEDTAVFYCARERYYGSGTYFNIGLWYFDLWGRGTLVTVSS
VL: not shown
notes: Fab made from the antibody by an enzyme treatment
In the case of B1, the “Binding Reactivity (% WT)” value in the test with human CD131 G198A was 194 % WT; in the test with human CD131 D144A, 129 % WT; with human CD131 W163A it was -9 % WT.
